From patent EP2784083A1 (Charité - Universitätsmedizin Berlin, dated 2014) come the findings set out here.

Targets include murine Acvr2b (murine, UniProt P27040 19-536); murine Acvr2a (murine, UniProt P27038 20-513); murine Bmpr1b (murine, UniProt P36898 14-502); murine Bmpr1a (murine, UniProt P36895 24-532).
What all share (assay): cell-based or functional assay
In assay [1] the target is hBMP2(N341 V-N384W) (human) (UniProt P12643).
For assay [2], the target named is wildtype human BMP2 (human) (UniProt P12643).
A further assay concerns the target T1, murine Bmpr2 (murine, UniProt O35607 27-1038).
T1 sequence (looked up): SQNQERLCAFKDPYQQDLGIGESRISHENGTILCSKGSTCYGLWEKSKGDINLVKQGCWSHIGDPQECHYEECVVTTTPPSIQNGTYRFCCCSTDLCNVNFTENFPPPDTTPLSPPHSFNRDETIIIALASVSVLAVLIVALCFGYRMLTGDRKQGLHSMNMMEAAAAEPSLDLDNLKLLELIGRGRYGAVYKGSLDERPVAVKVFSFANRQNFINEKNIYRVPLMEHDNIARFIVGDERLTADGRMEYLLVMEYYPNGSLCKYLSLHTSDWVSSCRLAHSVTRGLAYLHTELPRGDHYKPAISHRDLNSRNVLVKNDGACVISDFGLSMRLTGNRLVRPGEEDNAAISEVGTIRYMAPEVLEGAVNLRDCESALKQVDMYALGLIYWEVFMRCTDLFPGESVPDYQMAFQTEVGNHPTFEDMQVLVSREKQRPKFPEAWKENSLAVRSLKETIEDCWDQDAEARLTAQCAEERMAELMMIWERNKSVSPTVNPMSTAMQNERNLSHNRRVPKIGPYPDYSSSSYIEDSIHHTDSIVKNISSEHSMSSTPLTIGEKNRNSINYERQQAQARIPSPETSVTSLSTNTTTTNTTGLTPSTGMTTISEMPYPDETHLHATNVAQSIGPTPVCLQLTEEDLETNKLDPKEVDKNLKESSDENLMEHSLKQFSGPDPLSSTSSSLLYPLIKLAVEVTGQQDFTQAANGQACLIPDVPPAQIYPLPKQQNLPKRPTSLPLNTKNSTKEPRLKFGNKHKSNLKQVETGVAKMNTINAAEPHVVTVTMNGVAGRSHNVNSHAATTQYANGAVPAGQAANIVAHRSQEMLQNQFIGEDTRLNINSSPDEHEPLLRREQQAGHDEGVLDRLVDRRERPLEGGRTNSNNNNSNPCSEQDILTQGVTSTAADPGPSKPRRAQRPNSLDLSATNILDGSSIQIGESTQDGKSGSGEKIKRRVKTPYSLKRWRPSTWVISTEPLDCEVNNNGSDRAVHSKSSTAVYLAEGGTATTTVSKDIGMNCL

In another assay the target is T2, murine Acvr1 c (murine, UniProt Q8K348 26-493).
T2 sequence (looked up): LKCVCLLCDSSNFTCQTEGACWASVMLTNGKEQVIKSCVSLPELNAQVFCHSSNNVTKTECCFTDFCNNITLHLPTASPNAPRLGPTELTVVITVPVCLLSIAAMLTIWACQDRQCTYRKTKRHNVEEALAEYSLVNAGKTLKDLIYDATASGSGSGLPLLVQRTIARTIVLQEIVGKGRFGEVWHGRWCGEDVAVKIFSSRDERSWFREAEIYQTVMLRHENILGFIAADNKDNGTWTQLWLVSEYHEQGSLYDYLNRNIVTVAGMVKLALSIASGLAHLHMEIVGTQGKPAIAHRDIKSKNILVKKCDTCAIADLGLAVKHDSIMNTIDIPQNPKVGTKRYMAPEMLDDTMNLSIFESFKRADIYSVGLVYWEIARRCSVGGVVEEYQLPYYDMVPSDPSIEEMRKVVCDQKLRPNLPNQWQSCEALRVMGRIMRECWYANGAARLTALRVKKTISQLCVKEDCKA

The target in a further assay is T3, murine Acvr1 (murine, UniProt P37172 21-509).
T3 sequence (looked up): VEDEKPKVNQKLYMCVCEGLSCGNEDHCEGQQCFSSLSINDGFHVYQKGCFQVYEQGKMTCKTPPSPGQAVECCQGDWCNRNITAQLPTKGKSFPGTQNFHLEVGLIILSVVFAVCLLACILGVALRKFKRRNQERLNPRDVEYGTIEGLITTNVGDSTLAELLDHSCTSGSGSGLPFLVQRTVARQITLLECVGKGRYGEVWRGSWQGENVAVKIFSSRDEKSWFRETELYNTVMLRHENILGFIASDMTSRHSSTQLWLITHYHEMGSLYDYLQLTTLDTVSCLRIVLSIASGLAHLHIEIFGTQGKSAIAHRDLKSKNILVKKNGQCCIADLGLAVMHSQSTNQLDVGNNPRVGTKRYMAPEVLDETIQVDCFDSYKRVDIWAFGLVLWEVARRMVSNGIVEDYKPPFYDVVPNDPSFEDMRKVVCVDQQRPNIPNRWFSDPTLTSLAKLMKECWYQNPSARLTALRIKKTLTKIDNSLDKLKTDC

The next assay deals with T4, murine Actr1 b (murine, UniProt Q61271 24-505).
T4 sequence (looked up): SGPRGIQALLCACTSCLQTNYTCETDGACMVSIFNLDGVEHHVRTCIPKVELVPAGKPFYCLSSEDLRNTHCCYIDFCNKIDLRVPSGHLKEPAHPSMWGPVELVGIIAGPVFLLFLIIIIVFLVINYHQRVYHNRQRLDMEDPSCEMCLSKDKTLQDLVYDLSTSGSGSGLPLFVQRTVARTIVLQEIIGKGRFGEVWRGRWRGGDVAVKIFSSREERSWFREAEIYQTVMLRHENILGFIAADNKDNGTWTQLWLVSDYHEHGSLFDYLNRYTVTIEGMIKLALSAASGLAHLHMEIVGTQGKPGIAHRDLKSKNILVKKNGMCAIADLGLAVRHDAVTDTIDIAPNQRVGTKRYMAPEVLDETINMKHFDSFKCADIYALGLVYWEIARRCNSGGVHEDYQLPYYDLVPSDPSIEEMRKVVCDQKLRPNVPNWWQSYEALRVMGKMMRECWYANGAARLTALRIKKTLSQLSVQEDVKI

The next assay has as its target T5, murine Tβr1 (murine, UniProt Q64729 30-503).
T5 sequence (looked up): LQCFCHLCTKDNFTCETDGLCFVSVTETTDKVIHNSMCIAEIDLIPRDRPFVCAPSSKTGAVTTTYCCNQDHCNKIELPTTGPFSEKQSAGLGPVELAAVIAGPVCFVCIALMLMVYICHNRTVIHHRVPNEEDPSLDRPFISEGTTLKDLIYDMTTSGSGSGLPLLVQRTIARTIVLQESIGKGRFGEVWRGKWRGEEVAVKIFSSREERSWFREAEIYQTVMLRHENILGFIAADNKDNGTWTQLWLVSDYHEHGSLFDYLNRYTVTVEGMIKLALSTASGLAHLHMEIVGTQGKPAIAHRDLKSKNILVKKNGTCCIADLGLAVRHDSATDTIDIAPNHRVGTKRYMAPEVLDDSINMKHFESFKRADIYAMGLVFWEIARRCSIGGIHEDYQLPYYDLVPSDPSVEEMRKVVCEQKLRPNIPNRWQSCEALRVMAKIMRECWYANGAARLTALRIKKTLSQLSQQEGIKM

In a further assay the target is T6, murine Acvrl1 (murine, UniProt Q61288 23-502).
T6 sequence (looked up): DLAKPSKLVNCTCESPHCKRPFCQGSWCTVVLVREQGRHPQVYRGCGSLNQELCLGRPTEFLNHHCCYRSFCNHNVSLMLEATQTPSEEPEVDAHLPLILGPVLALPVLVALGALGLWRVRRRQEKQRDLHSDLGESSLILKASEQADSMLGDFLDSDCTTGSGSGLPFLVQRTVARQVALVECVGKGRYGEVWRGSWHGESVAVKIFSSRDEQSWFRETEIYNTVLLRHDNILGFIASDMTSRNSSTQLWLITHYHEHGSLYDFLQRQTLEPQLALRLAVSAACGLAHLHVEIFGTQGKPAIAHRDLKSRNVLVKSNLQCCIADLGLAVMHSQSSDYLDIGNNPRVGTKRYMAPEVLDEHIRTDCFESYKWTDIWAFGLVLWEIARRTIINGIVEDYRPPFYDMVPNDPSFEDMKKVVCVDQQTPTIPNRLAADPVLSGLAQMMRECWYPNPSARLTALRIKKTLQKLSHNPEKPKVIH

Sequence of murine Acvr2a (P27038 20-513): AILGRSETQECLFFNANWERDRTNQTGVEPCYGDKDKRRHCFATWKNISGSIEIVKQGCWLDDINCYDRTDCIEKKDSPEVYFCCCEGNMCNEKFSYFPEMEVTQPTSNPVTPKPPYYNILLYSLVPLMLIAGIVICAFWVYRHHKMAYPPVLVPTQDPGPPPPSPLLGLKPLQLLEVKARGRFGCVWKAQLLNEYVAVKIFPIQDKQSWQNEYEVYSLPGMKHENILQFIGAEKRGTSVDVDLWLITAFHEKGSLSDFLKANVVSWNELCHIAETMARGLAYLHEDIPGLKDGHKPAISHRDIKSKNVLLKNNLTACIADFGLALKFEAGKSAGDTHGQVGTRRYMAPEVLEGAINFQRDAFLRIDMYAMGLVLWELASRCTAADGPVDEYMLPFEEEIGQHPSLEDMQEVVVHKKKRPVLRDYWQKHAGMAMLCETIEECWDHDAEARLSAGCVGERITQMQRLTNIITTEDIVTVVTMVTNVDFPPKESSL
Sequence of murine Bmpr1b (P36898 14-502): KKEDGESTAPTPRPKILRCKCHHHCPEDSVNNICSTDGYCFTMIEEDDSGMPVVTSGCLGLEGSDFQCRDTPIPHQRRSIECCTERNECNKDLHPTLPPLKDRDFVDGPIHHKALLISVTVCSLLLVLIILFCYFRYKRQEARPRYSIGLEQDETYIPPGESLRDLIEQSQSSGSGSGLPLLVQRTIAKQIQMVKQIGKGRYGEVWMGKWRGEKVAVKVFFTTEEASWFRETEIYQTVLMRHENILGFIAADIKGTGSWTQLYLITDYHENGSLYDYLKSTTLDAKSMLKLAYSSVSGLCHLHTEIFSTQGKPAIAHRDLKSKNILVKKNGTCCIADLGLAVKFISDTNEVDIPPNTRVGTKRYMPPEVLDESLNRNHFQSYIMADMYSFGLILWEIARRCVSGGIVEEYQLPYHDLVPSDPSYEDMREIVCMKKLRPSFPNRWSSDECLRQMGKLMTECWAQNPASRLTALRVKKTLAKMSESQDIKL
Sequence of murine Acvr2b (P27040 19-536): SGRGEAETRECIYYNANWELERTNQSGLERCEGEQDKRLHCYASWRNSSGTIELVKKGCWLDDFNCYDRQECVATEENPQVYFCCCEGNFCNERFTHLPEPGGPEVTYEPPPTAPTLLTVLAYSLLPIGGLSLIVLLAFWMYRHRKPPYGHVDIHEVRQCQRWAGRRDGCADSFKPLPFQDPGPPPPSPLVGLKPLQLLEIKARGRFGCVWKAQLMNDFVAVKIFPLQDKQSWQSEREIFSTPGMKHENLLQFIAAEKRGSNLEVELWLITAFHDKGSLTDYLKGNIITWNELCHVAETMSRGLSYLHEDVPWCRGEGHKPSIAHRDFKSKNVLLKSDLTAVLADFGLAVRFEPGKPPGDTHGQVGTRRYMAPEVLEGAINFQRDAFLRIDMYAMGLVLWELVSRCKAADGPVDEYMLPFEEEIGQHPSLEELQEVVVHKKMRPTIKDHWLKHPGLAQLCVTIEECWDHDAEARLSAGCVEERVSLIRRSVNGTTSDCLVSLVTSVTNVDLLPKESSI
Sequence of murine Bmpr1a (P36895 24-532): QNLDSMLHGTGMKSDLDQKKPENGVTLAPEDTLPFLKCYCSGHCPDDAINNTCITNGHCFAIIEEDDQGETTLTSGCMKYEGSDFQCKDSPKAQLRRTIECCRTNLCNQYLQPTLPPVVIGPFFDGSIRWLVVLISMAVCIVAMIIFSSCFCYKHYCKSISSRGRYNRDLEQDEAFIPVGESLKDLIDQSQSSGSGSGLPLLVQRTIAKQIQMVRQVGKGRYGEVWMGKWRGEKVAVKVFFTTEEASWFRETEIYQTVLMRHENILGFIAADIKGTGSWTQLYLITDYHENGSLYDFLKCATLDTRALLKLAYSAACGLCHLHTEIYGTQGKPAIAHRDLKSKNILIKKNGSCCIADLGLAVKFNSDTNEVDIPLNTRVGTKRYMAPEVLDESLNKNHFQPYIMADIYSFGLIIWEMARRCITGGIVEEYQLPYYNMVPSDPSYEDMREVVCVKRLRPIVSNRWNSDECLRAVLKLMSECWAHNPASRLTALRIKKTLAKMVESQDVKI

In assay [1], “human NOG (Noggin) (from UniProt Q13253 28-232)” gave an NOG DNA surplus that blocks SBE reporter activation to control levels, NIH3T3 cells (fold surplus of transfected NOG-DNA) of 500; a rel. luciferase activity (SBE reporter, NIH3T3 cells) at 5x surplus of co-transfected NOG DNA (rel. luciferase activity) of 9.31; a rel. luciferase activity (SBE reporter, NIH3T3 cells) at 50x surplus of co-transfected NOG DNA (rel. luciferase activity) of 7.11. This molecule registered a chondrogenic potential in chicken micromass culture (Alcian blue), NOG co-expressed in assay [1] (scale: % of the wild-type activity in the absence of its antagonist) of more than 100. Besides, in [2], the rel. luciferase activity (SBE reporter, NIH3T3 cells) at 5x surplus of co-transfected NOG DNA (rel. luciferase activity) stood at 1.53 and the rel. luciferase activity (SBE reporter, NIH3T3 cells) at 50x surplus of co-transfected NOG DNA (rel. luciferase activity) turned out to be 1.51.

B1: wildtype human BMP2 (ligand)
chain: QAKHKQRKRLKSSCKRHPLYVDFSDVGWNDWIVAPPGYHAFYCHGECPFPLADHLNSTNHAIVQTLVNSVNSKIPKACCVPTELSAISMLYLDENEKVVLKNYQDMVVEGCGCR
As for B1, the “rel. luciferase activity (SBE reporter, COS-1 cells)” value is 171 rel. luciferase activity with murine Acvr2b; 268 rel. luciferase activity with murine Bmpr2; 57.4 rel. luciferase activity with murine Acvr2a; 2.06 rel. luciferase activity with murine Acvr1 c; 37.5 rel. luciferase activity in the assay with murine Bmpr1b; 1.63 rel. luciferase activity in the assay with murine Acvr1. The “rel. luciferase activity (SBE reporter, COS-1 cells)” value in the assay with murine Actr1 b came to 2.81 rel. luciferase activity; in the assay with murine Tβr1, 2.44 rel. luciferase activity; in the assay with murine Acvrl1, 6.41 rel. luciferase activity.

B2: hBMP2(N341 V-N384W) (ligand)
chain: QAKHKQRKRLKSSCKRHPLYVDFSDVGWNDWIVAPPGYHAFYCHGECPFPLADHLNSTVHAIVQTLVNSVNSKIPKACCVPTELSAISMLYLDENEKVVLKWYQDMVVEGCGCR
As for B2, the “rel. luciferase activity (SBE reporter, COS-1 cells)” value with murine Acvr2b was found to be 156 rel. luciferase activity; with murine Bmpr2 it was 262 rel. luciferase activity; with murine Acvr2a it was 46.7 rel. luciferase activity; with murine Acvr1 c, 2.75 rel. luciferase activity; with murine Bmpr1a it was 24.6 rel. luciferase activity; with murine Bmpr1b, 28.8 rel. luciferase activity. In addition, the “rel. luciferase activity (SBE reporter, COS-1 cells)” value with murine Acvr1 is 1.23 rel. luciferase activity; in the assay with murine Actr1 b it was 3.4 rel. luciferase activity; in the assay with murine Tβr1, 2.52 rel. luciferase activity; with murine Acvrl1, 7.57 rel. luciferase activity.
